Key:
HMVEC = assay: endothelial cell adhesion assay on Angptl3-coated plates; assay type: cell-based, human
Description: (§1) In order to identify potential integrins binding to Angptl3, recombinant Angptl3 proteins were coated onto 96-well flat-bottomed microtiter plates (MaxiSorp, Nunc, Denmark) overnight at 4° C. and blocked with 100 μg/ml BSA in PBS for 1 hour at 37° C. Various 293 cell lines stably transfected with different integrin heterodimers, including IIbIIIa (αIIBβ3), αvβ3, αvβ1 and αvβ5, were tested for their ability to bind Angptl3 coated plates. Cells were harvested and diluted to 10^5 cells/ml in serum-free CS-C medium containing 1% BSA, 1 mM CaCl2 and 1 mM MgCl2. Cells were preincubated with or without blocking antibodies or peptides for 15 minutes at 37° C. and then stimulated with 200 nM PMA. Cell suspensions (10^4 cells/well) were added to the coated wells and the plates were incubated at 37° C. for selected times. Non-adherent cells were removed by PBS washes and cell attachment was measured using the PNAG method of Lanndegren (Landegren, U., J. Immunol. Methods, 67:379-388 (1984)). Results are expressed at mean OD405 values of triplicate wells.
To determine whether the αvβ3 integrin was sufficient to mediate Angptl3 cell adhesion, blocking antibodies or inhibitory peptides were tested for their ability to inhibit the adhesion in the cell adhesion assay. Function blocking antibodies were added to the endothelial cells prior to incubation with the Angptl3-coated wells. […]

Tie2 receptor = target: T1, Tie2 receptor (Homo sapiens, UniProt Q02763); assay: co-immunoprecipitation in cotransfected 293 cells; assay type: binding; conditions: immunoprecipitation with anti-Tie2, anti-gD blot
T1 construct: in conjunction with full length receptor constructs for Tie1 and Tie2, respectively; expressed in transfected cells; host or cells: 293 cells (transient transfection)
T1 sequence (Q02763 23-1124): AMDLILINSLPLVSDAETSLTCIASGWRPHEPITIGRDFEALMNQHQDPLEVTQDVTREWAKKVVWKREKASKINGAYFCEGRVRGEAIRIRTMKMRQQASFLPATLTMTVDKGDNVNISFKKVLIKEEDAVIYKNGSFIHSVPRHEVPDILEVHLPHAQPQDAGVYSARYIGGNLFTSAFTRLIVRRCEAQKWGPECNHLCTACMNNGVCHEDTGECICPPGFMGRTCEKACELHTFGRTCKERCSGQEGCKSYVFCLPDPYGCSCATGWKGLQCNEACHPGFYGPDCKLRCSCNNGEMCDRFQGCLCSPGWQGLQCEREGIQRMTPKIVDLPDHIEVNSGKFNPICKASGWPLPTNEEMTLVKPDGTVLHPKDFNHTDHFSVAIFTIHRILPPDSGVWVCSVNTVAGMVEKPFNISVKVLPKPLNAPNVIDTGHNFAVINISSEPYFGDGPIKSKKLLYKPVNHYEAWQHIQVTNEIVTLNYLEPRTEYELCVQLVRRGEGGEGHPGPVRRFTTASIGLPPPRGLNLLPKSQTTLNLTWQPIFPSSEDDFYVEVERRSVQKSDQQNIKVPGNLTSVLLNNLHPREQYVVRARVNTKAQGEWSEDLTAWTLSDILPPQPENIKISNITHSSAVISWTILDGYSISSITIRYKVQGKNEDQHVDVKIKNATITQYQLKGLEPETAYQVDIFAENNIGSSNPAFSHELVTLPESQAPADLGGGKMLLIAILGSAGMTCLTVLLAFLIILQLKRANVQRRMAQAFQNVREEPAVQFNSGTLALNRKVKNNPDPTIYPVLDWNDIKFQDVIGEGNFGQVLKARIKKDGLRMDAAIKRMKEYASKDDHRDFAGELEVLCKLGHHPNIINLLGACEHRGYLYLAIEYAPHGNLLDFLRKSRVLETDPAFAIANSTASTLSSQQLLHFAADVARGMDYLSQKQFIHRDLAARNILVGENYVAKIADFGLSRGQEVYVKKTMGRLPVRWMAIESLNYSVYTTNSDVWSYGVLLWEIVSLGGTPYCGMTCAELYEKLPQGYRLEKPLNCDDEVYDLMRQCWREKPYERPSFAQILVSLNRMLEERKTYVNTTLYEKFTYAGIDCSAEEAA
Description: (§2) To test whether Tie2, the receptor for angiopoetins 1, 2 and 3 (Ang1, Ang2, and Ang3), or Tie1, an orphan receptor with high sequence homology to Tie2, bind to Angptl3, immunoprecipitation experiments were conducted using 293 cells transiently with expression vectors for epitope (gD)-tagged versions of Ang1 and Ang2, Angptl3 and ARP1 in conjunction with full length receptor constructs for Tie1 and Tie2, respectively. Whole cell extracts were prepared by lysis in RIPA buffer (1×PBS; 1% NP40; 0.5% sodium deoxycholate; 0.1% SDS; PMSF, 100 μg/ml; Aprotinin, 30 μl/ml; sodium orthovanadate, 1 μM) containing freshly added protease inhibitors. Extract was incubated with antibodies specific for Tie1 or Tie2 (Santa Cruz Biotechnology, San Diego, Calif.) and the resulting immunoprecipitate was analyzed by SDS-PAGE and immunoblotting. Specifically, proteins resolved by SDS-PAGE and blotted to PVDF membrane were incubated with antibodies against the gD tag or the Tie receptors, respectively.

[1] = tested on: Human microvascular endothelial cells (HMVECs); assay: FACS binding of gD-tagged ligands in conditioned media to endothelial cells; conditions: for binding to HMVEC: conditioned media from transfected 293 cells, gD-tagged ligands, FACS
Description: Because of the structural similarities between Angptl3 and angiopoietins, Angptl3 was tested for the ability to bind, in culture, to primary endothelial cells expressing the Tie2 receptor. Human microvascular endothelial cells (HMVECs), purchased from Cell System (Kirkland, Wash.), maintained in CS-C complete medium containing 10% fetal bovine serum and mitogens according to the recommendations by the supplier, were incubated with conditioned media from transiently transfected 293 cells expressing epitope (gD)-tagged versions of Tie2 ligands angiopoietin 1 and 2 (Ang1 and Ang2), Angptl3, and angiopoietin related protein 1 (ARP1), respectively. ARP1 is a structurally related molecule, consisting of a coiled-coil and a fibrinogen-like domain but unable to bind Tie2, and was used as a negative control.

Tie1 receptor = target: T2, Tie1 receptor (Homo sapiens, UniProt P35590); assay: co-immunoprecipitation in cotransfected 293 cells; assay type: binding; conditions: immunoprecipitation with anti-Tie1, anti-gD blot
T2 construct: in conjunction with full length receptor constructs for Tie1 and Tie2, respectively; expressed in transfected cells; host or cells: 293 cells (transient transfection)
Description: as §2

Mac-1 = Mac-1 (Homo sapiens, UniProt P05107+P11215); conditions: ELISA in vitro (Camenisch et al., 2002); cited from earlier work
Sequence of Mac-1 (P05107 23-769, other chains not shown): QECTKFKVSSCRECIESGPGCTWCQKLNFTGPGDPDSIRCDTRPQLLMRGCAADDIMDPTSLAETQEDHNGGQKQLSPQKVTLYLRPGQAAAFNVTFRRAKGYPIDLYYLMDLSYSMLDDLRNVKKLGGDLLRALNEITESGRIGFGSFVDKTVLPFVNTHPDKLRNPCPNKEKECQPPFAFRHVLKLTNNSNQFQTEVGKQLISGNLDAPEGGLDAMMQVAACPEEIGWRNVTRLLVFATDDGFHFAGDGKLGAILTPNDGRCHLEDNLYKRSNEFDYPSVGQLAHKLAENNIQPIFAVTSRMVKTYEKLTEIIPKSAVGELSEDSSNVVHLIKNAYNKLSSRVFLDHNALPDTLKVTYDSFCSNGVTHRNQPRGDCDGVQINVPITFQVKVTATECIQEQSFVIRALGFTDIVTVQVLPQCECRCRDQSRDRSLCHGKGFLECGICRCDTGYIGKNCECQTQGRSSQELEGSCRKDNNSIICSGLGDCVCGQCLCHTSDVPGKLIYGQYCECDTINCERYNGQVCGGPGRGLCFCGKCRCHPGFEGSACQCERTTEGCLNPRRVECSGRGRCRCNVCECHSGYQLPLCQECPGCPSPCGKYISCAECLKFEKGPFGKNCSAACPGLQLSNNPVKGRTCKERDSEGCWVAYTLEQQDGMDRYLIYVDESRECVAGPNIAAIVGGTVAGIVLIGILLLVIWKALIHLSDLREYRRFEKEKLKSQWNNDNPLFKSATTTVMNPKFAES

αvβ3 integrin = target: T3, αvβ3 integrin (Homo sapiens, UniProt P05106+P06756); assay: adhesion of integrin-transfected 293 cell lines to Angptl3-coated plates; assay type: cell-based; conditions: plates coated with 20 μg/ml hAngptl3, 4 hours; compared to cell lines expressing αIIbβ3, αvβ1, αvβ5
T3 construct: expressed in transfected cells
T3 sequence (P06756 31-889 limits assumed): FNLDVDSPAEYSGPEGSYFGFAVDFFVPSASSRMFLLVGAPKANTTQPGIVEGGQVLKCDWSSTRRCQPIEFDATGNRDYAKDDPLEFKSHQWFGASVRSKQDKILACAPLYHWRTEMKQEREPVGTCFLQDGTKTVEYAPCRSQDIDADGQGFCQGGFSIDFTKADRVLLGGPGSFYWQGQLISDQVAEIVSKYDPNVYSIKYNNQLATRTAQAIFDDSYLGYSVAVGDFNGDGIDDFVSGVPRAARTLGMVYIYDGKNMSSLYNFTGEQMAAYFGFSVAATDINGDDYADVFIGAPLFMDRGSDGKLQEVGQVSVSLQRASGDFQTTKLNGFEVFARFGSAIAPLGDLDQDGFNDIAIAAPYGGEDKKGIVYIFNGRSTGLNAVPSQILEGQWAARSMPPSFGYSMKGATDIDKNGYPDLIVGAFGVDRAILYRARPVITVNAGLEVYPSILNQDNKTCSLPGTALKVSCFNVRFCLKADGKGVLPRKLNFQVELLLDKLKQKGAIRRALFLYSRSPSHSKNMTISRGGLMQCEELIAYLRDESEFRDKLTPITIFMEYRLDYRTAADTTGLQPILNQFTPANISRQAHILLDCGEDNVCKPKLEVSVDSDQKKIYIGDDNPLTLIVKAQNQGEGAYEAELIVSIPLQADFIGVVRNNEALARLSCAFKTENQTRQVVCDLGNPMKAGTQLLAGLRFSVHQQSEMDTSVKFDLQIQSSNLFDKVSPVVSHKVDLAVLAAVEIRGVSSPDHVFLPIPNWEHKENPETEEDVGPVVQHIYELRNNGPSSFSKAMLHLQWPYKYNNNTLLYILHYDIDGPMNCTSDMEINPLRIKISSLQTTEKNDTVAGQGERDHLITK
T3 sequence (P06756 891-1048 limits assumed): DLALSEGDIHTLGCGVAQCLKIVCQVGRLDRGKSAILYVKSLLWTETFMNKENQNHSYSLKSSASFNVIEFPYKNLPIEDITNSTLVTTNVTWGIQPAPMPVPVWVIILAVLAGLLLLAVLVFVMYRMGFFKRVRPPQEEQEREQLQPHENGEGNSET
T3 sequence (P05106 27-788): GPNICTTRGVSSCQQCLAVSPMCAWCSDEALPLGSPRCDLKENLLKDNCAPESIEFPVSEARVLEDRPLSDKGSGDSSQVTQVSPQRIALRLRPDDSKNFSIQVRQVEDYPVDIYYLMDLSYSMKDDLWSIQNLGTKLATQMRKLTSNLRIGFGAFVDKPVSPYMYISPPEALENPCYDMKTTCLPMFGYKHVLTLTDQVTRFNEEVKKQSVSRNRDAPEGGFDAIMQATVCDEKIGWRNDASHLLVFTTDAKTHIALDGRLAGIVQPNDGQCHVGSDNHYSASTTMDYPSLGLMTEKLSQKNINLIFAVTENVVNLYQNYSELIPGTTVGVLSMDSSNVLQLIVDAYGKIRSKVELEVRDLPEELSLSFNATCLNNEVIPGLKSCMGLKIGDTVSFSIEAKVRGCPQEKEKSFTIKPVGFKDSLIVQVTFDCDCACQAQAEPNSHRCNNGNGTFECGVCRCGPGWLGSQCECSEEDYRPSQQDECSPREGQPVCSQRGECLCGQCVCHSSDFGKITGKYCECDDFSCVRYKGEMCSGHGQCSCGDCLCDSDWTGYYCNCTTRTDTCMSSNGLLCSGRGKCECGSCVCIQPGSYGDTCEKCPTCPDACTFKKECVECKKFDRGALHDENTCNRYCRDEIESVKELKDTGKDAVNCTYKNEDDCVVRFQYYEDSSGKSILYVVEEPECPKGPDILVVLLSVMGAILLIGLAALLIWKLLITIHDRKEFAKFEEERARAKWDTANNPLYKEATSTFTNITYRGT
Description: as §1

rat cornea = rat cornea in vivo angiogenesis assay; conditions: for angiogenic response compared to levels obtained for VEGF: Angptl3 500 ng vs VEGF 100 ng
Description: In order to test whether Angptl3 was capable to induce an in vivo angiogenic response in the rat cornea, […] pellets containing murine and human Angptl3 (500 ng) as well as human VEGF (100 ng) were implanted separately or in combination as described previously (Xin et al., J. Biol. Chem., 274:[…] (1999)). Hydron pellets containing excipient (control, murine or human Angptl3 (500 ng), VEGF (100 ng), or the combination of murine or human Angptl3 (500 ng) and VEGF (100 ng) were implanted into the corneas of 250 to 300 g male Sprague-Dawley rates. All hydron pellets contained 100 ng of sucralfate. […] Corneal whole mounts were made of the enucleated eyes and analyzed for neovascular areas using a computer-assisted image analysis (Image Pro-Plus 2.0, Silver Spring, Md.). In contrast to previous reports focusing on the effects of angiopoietin 1 and 2 when tested in the corneal angiogenesis assay (Asahara et al., Circ. […] These findings might reflect the interdependent signal transduction pathways engaged by both ligands (Byzova et al., Mol. Cell. 6:852-60 (2000)).

LFA1 = LFA1 (Homo sapiens, UniProt P05107+P20701); conditions: ELISA in vitro (Camenisch et al., 2002); cited from earlier work
Sequence of LFA1 (P20701 26-1170): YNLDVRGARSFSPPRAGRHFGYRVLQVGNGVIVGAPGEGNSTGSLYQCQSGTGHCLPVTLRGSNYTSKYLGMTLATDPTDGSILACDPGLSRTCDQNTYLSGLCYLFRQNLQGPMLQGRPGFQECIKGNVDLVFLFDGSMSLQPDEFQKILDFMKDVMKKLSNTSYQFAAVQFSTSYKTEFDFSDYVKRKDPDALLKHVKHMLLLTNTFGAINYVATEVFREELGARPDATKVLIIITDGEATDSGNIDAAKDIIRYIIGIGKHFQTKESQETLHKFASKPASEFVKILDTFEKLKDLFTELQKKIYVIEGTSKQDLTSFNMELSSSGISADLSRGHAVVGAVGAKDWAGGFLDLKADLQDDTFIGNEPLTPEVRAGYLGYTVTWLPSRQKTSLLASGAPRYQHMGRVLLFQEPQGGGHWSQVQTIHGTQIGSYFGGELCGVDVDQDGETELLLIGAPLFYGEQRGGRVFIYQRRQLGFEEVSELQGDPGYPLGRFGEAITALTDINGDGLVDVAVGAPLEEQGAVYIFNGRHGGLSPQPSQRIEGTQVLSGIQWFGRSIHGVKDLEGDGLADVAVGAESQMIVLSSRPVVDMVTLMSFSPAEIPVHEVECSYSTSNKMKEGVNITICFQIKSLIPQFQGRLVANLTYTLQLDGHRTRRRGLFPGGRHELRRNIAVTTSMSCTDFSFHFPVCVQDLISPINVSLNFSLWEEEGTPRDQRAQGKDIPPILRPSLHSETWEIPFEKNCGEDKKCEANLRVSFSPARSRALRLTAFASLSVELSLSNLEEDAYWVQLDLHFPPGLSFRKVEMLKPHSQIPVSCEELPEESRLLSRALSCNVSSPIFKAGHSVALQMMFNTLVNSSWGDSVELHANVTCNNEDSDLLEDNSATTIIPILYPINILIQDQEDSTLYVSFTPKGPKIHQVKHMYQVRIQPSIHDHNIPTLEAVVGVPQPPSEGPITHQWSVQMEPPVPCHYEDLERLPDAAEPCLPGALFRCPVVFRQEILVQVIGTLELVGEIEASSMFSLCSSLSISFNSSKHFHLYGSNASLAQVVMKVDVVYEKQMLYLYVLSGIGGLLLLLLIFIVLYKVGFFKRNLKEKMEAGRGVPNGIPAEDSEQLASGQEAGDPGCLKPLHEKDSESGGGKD
Sequence of LFA1 (P05107 23-769): as the sequence (P05107 23-769, other chains not shown) above

[2] = tested on: freshly isolated murine hepatocytes; assay: cell adhesion on protein-coated plates, hepatocytes; assay type: cell-based, mouse; conditions: dishes coated with recombinant mAngptl3 (FIG. 13 legend), 200 nM PMA
Description: 96-well flat-bottomed plates (MaxiSorp, Nunc, Denmark) were coated overnight at 4° C. with the indicated concentrations of proteins and blocked with 3% BSA in PBS for 1 hour at 37° C. Primary human dermal endothelial cells (HMVECs) and freshly isolated murine hepatocytes that were prepared from the livers of adult C57/B16 mice using the method described in LeCouter et al (LeCouter et al., 2001) were harvested and diluted to 10^5 cells/ml in serum-free CS-C medium containing 1% BSA, 1 mM CaCl2 and 1 mM MgCl2 in the presence of 200 nM PMA. […] Cell suspensions (10^4 cells/well) were added to the coated wells and the plates were incubated at 37° C. for selected times. Non-adherent cells were removed by PBS washes and cell attachment was measured using the PNAG method of Landegren (Landegren, 1984). Results were expressed at mean OD405 values of triplicate wells.

**Q.** With O=C(O)CN(CCN(CC(=O)O)CC(=O)O)CC(=O)O [EDTA, reference compound] as the molecule, how does the “effect of EDTA on endothelial cell adhesion to Angptl3” value (HMVEC; EDTA 10 mM) read?
**A.** The value was “completely abolished”.

**Q.** For “Ang2: epitope (gD)-tagged Tie2 ligand angiopoietin 2 [reference compound]”, which “binding to Tie2” value (Tie2 receptor) is on record?
**A.** The value was “Tie2 binding”.

**Q.** And the “binding to HMVEC” value [1]?
**A.** Its value is “strongly bound”.

B1: Angptl3: angiopoietin-like protein 3, native human sequence SEQ ID NO: 2; recombinant gD-tagged secreted glycoprotein (protein, listed as Homo sapiens)
chain: MFTIKLLLFIVPLVISSRIDQDNSSFDSLSPEPKSRFAMLDDVKILANGLLQLGHGLKDFVHKTKGQINDIFQKLNIFDQSFYDLSLQTSEIKEEEKELRRTTYKLQVKNEEVKNMSLELNSKLESLLEEKILLQQKVKYLEEQLTNLIQNQPETPEHPEVTSLKTFVEKQDNSIKDLLQTVEDQYKQLNQQHSQIKEIENQLRRTSIQEPTEISLSSKPRAPRTTPFLQLNEIRNVKHDGIPAECTTIYNRGEHTSGMYAIRPSNSQVFHVYCDVISGSPWTLIQHRIDGSQNFNETWENYKYGFGRLDGEFWLGLEKIYSIVKQSNYVLRIELEDWKDNKHYIEYSFYLGNHETNYTLHLVAITGNVPNAIPENKDLVFSTWDHKAKGHFNCPEGYSGGWWWHDECGENNLNGKYNKPRAKSKPERRRGLSWKSQNGRLYSIKSTKMLIHPTDSESFE
modifications: gD tag
notes: recombinant gD-tagged secreted glycoprotein
**Q.** What does the source list for B1?
**A.** induction of endothelial cell adhesion (HMVEC; increasing coating amounts of hAngptl3, within 4 hours): robust, dose-dependent adhesion; binding to Tie1 (Tie1 receptor): did not bind; binding to Tie2 (Tie2 receptor): did not bind; binding to HMVEC after exposure of cells to hypoxia or VEGF ([1]; cells exposed to hypoxia or VEGF, data not shown): significantly increased; binding to HMVEC [1]: strongly bound; binding to Mac-1 (Mac-1): did not bind; adherence of 293 cells expressing αvβ3 to Angptl3 (αvβ3 integrin): marked increased; in vivo angiogenic response in rat cornea (rat cornea; 500 ng in hydron pellet, alone, 5 days after pellet implantation): strong angiogenic response; angiogenic response compared to levels obtained for VEGF (rat cornea): comparable; binding to LFA1 (LFA1): did not bind; hepatocyte adhesion [2]: Coating-concentration dependent

B2: Ang1: epitope (gD)-tagged Tie2 ligand angiopoietin 1 (protein, listed as Homo sapiens)
chain: RDCADVYQAGFNKSGIYTIYINNMPEPKKVFCNMDVNGGGWTVIQHREDGSLDFQRGWKEYKMGFGNPSGEYWLGNEFIFAITSQRQYMLRIELMDWEGNRAYSQYDRFHIGNEKQNYRLYLKGHTGTAGKQSSLILHGADFSTKDADNDNCMCKCALMLTGGWWFDACGPSNLNGMFYTAGQNHGKLNGIKWHYFKGPSYSLRSTTMMIRPLDF
modifications: gD epitope tag
**Q.** For B2, which “binding to Tie2” value (Tie2 receptor) is on record?
**A.** The value was “Tie2 binding”.

B3: ARP1: angiopoietin related protein 1, unable to bind Tie2, negative control (protein, UniProt O95841 24-491, looked up)
Angiopoietin-related protein 1: GQFKIKKINQRRYPRATDGKEEAKKCAYTFLVPEQRITGPICVNTKGQDASTIKDMITRMDLENLKDVLSRQKREIDVLQLVVDVDGNIVNEVKLLRKESRNMNSRVTQLYMQLLHEIIRKRDNSLELSQLENKILNVTTEMLKMATRYRELEVKYASLTDLVNNQSVMITLLEEQCLRIFSRQDTHVSPPLVQVVPQHIPNSQQYTPGLLGGNEIQRDPGYPRDLMPPPDLATSPTKSPFKIPPVTFINEGPFKDCQQAKEAGHSVSGIYMIKPENSNGPMQLWCENSLDPGGWTVIQKRTDGSVNFFRNWENYKKGFGNIDGEYWLGLENIYMLSNQDNYKLLIELEDWSDKKVYAEYSSFRLEPESEFYRLRLGTYQGNAGDSMMWHNGKQFTTLDRDKDMYAGNCAHFHKGGWWYNACAHSNLNGVWYRGGHYRSKHQDGIFWAEYRGGSYSLRAVQMMIKPID
**Q.** For B3, which “binding to HMVEC” value [1] is on record?
**A.** The value was “no binding was observed”.

B4: murine Angptl3: recombinant mouse Angptl3 overexpressed in CHO cells (protein, UniProt Q9R182 17-455, looked up)
Angiopoietin-related protein 3: SRVDPDLSSFDSAPSEPKSRFAMLDDVKILANGLLQLGHGLKDFVHKTKGQINDIFQKLNIFDQSFYDLSLRTNEIKEEEKELRRTTSTLQVKNEEVKNMSVELNSKLESLLEEKTALQHKVRALEEQLTNLILSPAGAQEHPEVTSLKSFVEQQDNSIRELLQSVEEQYKQLSQQHMQIKEIEKQLRKTGIQEPSENSLSSKSRAPRTTPPLQLNETENTEQDDLPADCSAVYNRGEHTSGVYTIKPRNSQGFNVYCDTQSGSPWTLIQHRKDGSQDFNETWENYEKGFGRLDGEFWLGLEKIYAIVQQSNYILRLELQDWKDSKHYVEYSFHLGSHETNYTLHVAEIAGNIPGALPEHTDLMFSTWNHRAKGQLYCPESYSGGWWWNDICGENNLNGKYNKPRTKSRPERRRGIYWRPQSRKLYAIKSSKMMLQPTT
**Q.** Which “potency in inducing angiogenesis compared to the recombinant human protein” value (rat cornea; 500 ng each) does the source give for B4 here?
**A.** Its value is “slightly more potent”.

**Q.** What about the “angiogenic response compared to levels obtained for VEGF” value (rat cornea) of the same molecule?
**A.** Its value is “comparable”.

— US8541376B2, “Composition comprising and method of using angiopoietin-like protein 3 ANGPTL3” (Genentech, Inc., priority 2001, dated 2013)
